This is an account of results in publication PMC6515931, “The Efflux Mechanism of Fraxetin-O-Glucuronides in UGT1A9-Transfected HeLa Cells: Identification of Multidrug Resistance-Associated Proteins 3 and 4 (MRP3/4) as the Important Contributors” (Frontiers in Pharmacology, 2019).

One series addresses T1, MRP3 (Homo sapiens, UniProt O15438).
T1 construct: BCRP, MRP1, MRP3, and MRP4 were detected in both wild-type HeLa and HeLa1A9 cells; endogenous in cells
Nature of the series: shRNA-mediated partial silencing of MRP3 in HeLa1A9 cells, glucuronide excretion. The format is cell-based. Particulars: fraxetin 10 μM. The protocol:
(§1) The HeLa1A9 cells were pretreated and incubated with fraxetin solutions as reported previously ([Jiang et al., 2011]). Before assays, the HeLa1A9 cells were washed twice with prewarmed (37°C) Hank’s balanced salt solution (HBSS; pH = 7.4). After that, fraxetin (10 μM) dissolved in 2 mL of HBSS was incubated with the HeLa1A9 cells. At each time point (30, 60, 90, and 120 min), 200 μL of the culture supernatant from each well was collected as samples, and an equal volume of a loading media was used to replenish each well. Next, the collected samples were each mixed with 100 μL ice-cold acetonitrile. The supernatants were subjected to UHPLC analysis after centrifugation (10 min at 13800 × g).
(§2) In glucuronide excretion assays, biological inhibition mainly including shRNA-mediated partial silencing of BCRP and MRPs in HeLa cells was usually performed to evaluate the role of each efflux transporter ([Quan et al., 2015]; [Sun et al., 2015]; [Qin et al., 2018a]). Established shRNA_BCRP, shRNA_MRP1, shRNA_MRP3, and shRNA_MRP4 plasmids were […] transfected into HeLa1A9 cells to develop the stably shRNA-transfected cell lines, named HeLa1A9-BCRP-shRNA cells, HeLa1A9-MRP1-shRNA, HeLa1A9-MRP3-shRNA, and HeLa1A9-MRP4-shRNA cells, respectively. After transfection for 2 days, these engineered HeLa1A9 cells were subjected to fraxetin-O-glucuronide excretion experiments. The control scrambled shRNA served as a negative control.
(§3) In addition, the excretion rate of intracellular glucuronides was calculated using Equ. 2. Fraction metabolized or the fmet value was defined as the fraction of a dose metabolized based on Equ. 3. The fmet value was regarded as the more appropriate parameter to reflect the extent of drug metabolism in intact cells in the presence of a transporter–enzyme interplay.
(§4) (2) Excretion rate=VdC(excretedglucuronide)/dt
(§5) (3) fmet=excreted glucuronide+intracellular glucuronide/dosed aglycone
(§6) where V is the volume of the incubation medium, C is the excreted cumulative concentration of glucuronides, and t denotes the incubation time. Here, dC(excreted glucuronide)/dt describes the changes in glucuronide levels with time.

Another series concerns HeLa1A9 cells. In words: Glucuronide excretion experiments in HeLa1A9 cells. The format is cell-based, human. The protocol: as §1, with “After that, fraxetin (10 μM) dissolved in 2 mL of HBSS was incubated with the HeLa1A9 cells.” left out
as §3, §4, §6

The target of a further series is T2, MRP4 (Homo sapiens, UniProt O15439).
T2 construct: BCRP, MRP1, MRP3, and MRP4 were detected in both wild-type HeLa and HeLa1A9 cells; endogenous in cells
T2 sequence (O15439 1-1325): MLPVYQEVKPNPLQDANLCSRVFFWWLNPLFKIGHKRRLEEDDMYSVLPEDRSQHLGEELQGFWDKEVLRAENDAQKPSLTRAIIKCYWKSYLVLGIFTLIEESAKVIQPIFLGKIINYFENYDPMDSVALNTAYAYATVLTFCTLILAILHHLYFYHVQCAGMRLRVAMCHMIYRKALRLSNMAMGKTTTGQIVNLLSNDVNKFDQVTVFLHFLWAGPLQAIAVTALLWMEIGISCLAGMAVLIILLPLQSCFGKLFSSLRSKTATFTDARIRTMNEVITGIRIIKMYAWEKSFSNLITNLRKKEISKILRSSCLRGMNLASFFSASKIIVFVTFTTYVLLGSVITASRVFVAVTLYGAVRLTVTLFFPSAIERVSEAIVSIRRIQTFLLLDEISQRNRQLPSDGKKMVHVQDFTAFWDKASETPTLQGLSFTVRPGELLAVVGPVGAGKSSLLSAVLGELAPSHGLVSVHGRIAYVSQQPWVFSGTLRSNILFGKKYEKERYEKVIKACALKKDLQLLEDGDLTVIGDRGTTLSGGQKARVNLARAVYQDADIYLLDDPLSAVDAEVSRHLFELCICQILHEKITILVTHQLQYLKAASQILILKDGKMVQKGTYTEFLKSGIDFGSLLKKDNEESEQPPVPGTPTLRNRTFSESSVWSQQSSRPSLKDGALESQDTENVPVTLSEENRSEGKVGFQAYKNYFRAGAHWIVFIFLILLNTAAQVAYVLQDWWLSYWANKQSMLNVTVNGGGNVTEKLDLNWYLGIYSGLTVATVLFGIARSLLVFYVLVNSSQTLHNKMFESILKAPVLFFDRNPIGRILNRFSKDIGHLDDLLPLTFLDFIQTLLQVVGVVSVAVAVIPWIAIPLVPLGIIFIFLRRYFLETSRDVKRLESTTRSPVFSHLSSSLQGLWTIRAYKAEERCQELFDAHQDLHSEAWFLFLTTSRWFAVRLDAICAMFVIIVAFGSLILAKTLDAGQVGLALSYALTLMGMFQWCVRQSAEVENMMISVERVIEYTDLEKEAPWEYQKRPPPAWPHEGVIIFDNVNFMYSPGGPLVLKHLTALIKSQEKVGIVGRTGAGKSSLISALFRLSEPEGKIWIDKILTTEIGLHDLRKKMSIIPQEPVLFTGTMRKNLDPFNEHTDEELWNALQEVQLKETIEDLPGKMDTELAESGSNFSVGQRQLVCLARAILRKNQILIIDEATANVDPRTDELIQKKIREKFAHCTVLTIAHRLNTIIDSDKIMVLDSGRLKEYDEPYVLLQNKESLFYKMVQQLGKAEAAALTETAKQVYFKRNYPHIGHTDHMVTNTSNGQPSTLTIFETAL
Nature of the series: shRNA-mediated partial silencing of MRP4 in HeLa1A9 cells, glucuronide excretion. The format is cell-based. Particulars: fraxetin 10 μM. The procedure:
as §1, §2, §3, §4, §5, §6

A further series concerns the target T3, UGT1A9 (Homo sapiens, UniProt O60656).
T3 sequence (O60656 26-530): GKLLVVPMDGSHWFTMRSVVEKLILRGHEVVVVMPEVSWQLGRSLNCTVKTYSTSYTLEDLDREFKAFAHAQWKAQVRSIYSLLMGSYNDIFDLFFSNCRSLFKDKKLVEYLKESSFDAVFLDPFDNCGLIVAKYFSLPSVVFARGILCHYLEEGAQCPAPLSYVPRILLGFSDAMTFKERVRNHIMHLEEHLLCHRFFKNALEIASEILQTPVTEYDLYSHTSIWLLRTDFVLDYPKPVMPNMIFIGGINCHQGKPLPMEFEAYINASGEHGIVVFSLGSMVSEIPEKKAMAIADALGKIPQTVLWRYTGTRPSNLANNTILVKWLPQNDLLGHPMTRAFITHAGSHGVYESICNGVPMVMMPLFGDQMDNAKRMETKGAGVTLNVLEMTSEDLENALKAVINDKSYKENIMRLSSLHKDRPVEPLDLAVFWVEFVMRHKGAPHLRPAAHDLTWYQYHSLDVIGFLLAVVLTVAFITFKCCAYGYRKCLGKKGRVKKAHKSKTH
The procedure:
The incubation system was slightly modified on the basis of a previously published article ([Qin et al., 2018a]). […] After preincubation at 37°C for 5 min, UDPGA (3.5 mM) was added to the reaction system, and the mixture was incubated for another 30 min. These reactions were terminated by the addition of an equal volume of ice-cold acetonitrile. The mixed samples were centrifuged at 13800 × g for 10 min, and the supernatant was analyzed by ultra-high-performance liquid chromatography (UHPLC). All the experiments were conducted in triplicate.
The enzyme kinetic parameters were obtained by fitting appropriate kinetic models to the experimental data in GraphPad Prism V5 software (San Diego, CA, United States). The best model was selected based on visual inspection of the Eadie–Hofstee plots ([Qin et al., 2018b]). In brief, if the Eadie–Hofstee plot was linear, formation rates (V) of glucuronides at different substrate concentrations (C) were fitted to the standard equations (1): […]
Where Km is the Michaelis–Menten constant, and Vmax is the maximum rate of glucuronidation. The intrinsic clearance (CLint) was computed as Vmax/Km.

Substrate in series [1]: CC(C)c1cccc(C(C)C)c1O
Nature of the series: cells, lysate or membranes named. Particulars: other: metabolite propofol-G, pH 7.4, 37.0 °C.

Substrate in series [2]: COc1cc2ccc(=O)oc2c(O)c1O
Nature of the series: cells, lysate or membranes named. The settings on record: UGT1A9 enzyme, pH 7.4, 37.0 °C.

Substrate in series [3]: COc1cc2ccc(=O)oc2c(O)c1O
In words: Glucuronidation kinetics by HeLa1A9 cell lysate. It is filed as in vitro ADME, human.

Setting [4] is: other: metabolite G1, pH 7.4, 37.0 °C.
The mark [5] stands for this setting: other: metabolite G2, pH 7.4, 37.0 °C.

T1 sequence (O15438 whole entry): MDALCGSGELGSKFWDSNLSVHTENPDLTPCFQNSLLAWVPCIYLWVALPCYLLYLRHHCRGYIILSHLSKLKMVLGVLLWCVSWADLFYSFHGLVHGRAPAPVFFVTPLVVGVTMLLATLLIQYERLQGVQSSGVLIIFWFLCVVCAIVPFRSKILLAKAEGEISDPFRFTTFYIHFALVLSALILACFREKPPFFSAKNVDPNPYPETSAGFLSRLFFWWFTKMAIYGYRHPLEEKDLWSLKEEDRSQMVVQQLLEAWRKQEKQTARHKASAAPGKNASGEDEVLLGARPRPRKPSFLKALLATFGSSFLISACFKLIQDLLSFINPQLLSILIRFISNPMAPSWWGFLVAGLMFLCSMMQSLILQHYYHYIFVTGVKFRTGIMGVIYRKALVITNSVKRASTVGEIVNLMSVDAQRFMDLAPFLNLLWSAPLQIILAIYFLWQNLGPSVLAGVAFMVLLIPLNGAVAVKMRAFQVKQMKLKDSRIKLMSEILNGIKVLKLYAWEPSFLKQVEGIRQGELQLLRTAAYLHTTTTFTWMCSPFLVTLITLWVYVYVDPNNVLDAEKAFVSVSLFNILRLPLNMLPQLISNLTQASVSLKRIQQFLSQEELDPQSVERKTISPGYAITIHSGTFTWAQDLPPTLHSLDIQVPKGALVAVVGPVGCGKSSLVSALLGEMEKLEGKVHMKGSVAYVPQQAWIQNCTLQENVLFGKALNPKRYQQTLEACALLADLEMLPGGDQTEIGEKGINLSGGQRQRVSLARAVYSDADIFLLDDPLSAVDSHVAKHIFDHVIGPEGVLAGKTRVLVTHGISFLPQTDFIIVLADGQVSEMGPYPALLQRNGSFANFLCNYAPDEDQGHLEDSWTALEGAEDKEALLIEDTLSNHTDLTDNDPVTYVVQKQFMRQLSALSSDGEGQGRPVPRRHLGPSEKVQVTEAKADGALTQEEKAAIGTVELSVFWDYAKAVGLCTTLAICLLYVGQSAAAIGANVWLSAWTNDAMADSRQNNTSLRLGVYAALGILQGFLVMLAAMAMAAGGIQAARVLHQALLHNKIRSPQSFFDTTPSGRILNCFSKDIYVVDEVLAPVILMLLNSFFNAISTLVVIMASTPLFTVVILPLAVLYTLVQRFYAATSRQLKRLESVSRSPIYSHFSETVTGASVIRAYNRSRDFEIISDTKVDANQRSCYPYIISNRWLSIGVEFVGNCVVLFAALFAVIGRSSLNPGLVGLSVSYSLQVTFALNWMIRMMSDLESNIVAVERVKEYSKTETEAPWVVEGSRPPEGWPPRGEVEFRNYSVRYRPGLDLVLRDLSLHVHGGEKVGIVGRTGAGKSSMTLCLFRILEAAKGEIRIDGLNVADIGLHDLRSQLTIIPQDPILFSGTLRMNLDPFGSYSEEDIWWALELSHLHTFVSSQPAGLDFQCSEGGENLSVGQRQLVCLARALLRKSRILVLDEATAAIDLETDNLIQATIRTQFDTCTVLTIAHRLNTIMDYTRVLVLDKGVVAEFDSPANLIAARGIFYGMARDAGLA

Usually Km stands for the substrate concentration at which the rate is half of its maximum. With `COc1cc2ccc(=O)oc2c(O[C@@H]2O[C@H](C(=O)O)[C@@H](O)[C@H](O)[C@H]2O)c1O` [G1, fraxetin-8-O-glucuronide], at MRP3 (MRP3 knockdown), the “decrease in fraction metabolized (fmet; overall cellular glucuronidation)” value is reported as 24.1% and the “reduction in excretion rate” value came out at 29.1%. At MRP3 (MRP3 knockdown, HeLa1A9 cells), the “reduction in excreted glucuronide” value is given as 19.8–39.4%. At MRP3 (MRP3 silencing), the “elevation of intracellular glucuronide level” value worked out at 30.2%. Further, in the series with HeLa1A9 cells (fraxetin 5, 10 and 20 μM, HeLa1A9 cells), the “excretion with elevation of the fraxetin concentration” value is “markedly increased”. Also, on MRP4, the “decrease in fraction metabolized (fmet)” value amounted to 22.7%, the “elevation of intracellular glucuronide” value is listed as 42.0% and the “reduction in excretion rate” value came out at 34.8%. Besides, on MRP4 (HeLa1A9 cells), the “decreased excretion of glucuronide” value is reported as 33.6–51.1%. For the same molecule, the Michaelis constant (Km) on UGT1A9 lay within 8 to 16 µM.

Take `CC(C)c1cccc(C(C)C)c1O[C@@H]1O[C@H](C(=O)O)[C@@H](O)[C@H](O)[C@H]1O` [propofol-O-glucuronide]: the excretion rate was 0.053 pmol/min in the series on HeLa1A9 cells (propofol 40 μM incubated with HeLa1A9 cells) and 0.070 pmol/min with HeLa1A9 cells (propofol 80 μM incubated with HeLa1A9 cells).

B1: UGT1A9 (Homo sapiens) (protein)
chain: GKLLVVPMDGSHWFTMRSVVEKLILRGHEVVVVMPEVSWQLGRSLNCTVKTYSTSYTLEDLDREFKAFAHAQWKAQVRSIYSLLMGSYNDIFDLFFSNCRSLFKDKKLVEYLKESSFDAVFLDPFDNCGLIVAKYFSLPSVVFARGILCHYLEEGAQCPAPLSYVPRILLGFSDAMTFKERVRNHIMHLEEHLLCHRFFKNALEIASEILQTPVTEYDLYSHTSIWLLRTDFVLDYPKPVMPNMIFIGGINCHQGKPLPMEFEAYINASGEHGIVVFSLGSMVSEIPEKKAMAIADALGKIPQTVLWRYTGTRPSNLANNTILVKWLPQNDLLGHPMTRAFITHAGSHGVYESICNGVPMVMMPLFGDQMDNAKRMETKGAGVTLNVLEMTSEDLENALKAVINDKSYKENIMRLSSLHKDRPVEPLDLAVFWVEFVMRHKGAPHLRPAAHDLTWYQYHSLDVIGFLLAVVLTVAFITFKCCAYGYRKCLGKKGRVKKAHKSKTH
Broadly, the Vmax is the rate approached at saturating substrate. Regarding B1, the Michaelis constant (Km) in series [1] (UGT1A9 enzyme) was determined as 53 ± 6 µM. Besides, in series [2] (other: metabolite G1), the Km is 16 ± 2 µM, the maximum rate (Vmax) amounted to 0.00292 µmol/min/mg and the Vmax/Km was 180 µL/min/mg. In addition, in series [2] (other: metabolite G2), the Km was found to be 10 ± 1 µM, the Vmax is 0.00144 µmol/min/mg and the Vmax/Km was 150 µL/min/mg.

B2: HeLa1A9 cell lysate (Homo sapiens) (protein)
chain: GKLLVVPMDGSHWFTMRSVVEKLILRGHEVVVVMPEVSWQLGRSLNCTVKTYSTSYTLEDLDREFKAFAHAQWKAQVRSIYSLLMGSYNDIFDLFFSNCRSLFKDKKLVEYLKESSFDAVFLDPFDNCGLIVAKYFSLPSVVFARGILCHYLEEGAQCPAPLSYVPRILLGFSDAMTFKERVRNHIMHLEEHLLCHRFFKNALEIASEILQTPVTEYDLYSHTSIWLLRTDFVLDYPKPVMPNMIFIGGINCHQGKPLPMEFEAYINASGEHGIVVFSLGSMVSEIPEKKAMAIADALGKIPQTVLWRYTGTRPSNLANNTILVKWLPQNDLLGHPMTRAFITHAGSHGVYESICNGVPMVMMPLFGDQMDNAKRMETKGAGVTLNVLEMTSEDLENALKAVINDKSYKENIMRLSSLHKDRPVEPLDLAVFWVEFVMRHKGAPHLRPAAHDLTWYQYHSLDVIGFLLAVVLTVAFITFKCCAYGYRKCLGKKGRVKKAHKSKTH
notes: expressed in transfected cells; host or cells: HeLa cells stably transfected with the UGT1A9 gene (HeLa1A9); lysate supernatant
In the case of B2, in series [3] (setting [4]), the Km is 13 ± 2 µM, the Vmax is 0.00011 ± 5e-06 µmol/min/mg and the Vmax/Km was determined as 9 ± 1 µL/min/mg. In series [3] (setting [5]), the Michaelis-Menten constant (Km) amounted to 8 ± 1 µM, the Vmax stood at 4.2e-05 ± 2e-06 µmol/min/mg and the Vmax/Km came to 5 ± 1 µL/min/mg. The Km in series [1] (HeLa1A9 cell lysate) was 59 ± 13 µM.
